For one substance, stoichiometry N results are on record in article PMC8509707.

The target in the assay is Recombinant His-tagged C-terminal ^ECFTO domain (CD-FTO) (human). Description: SEC; ^BTCaM (7.6 µM) and/or CD-FTO (15.2 µM), 10 min at 4 °C, SEC650 column in SEC1 buffer (50 mM MES pH 6.5, 150 mM NaCl, 10% glycerol, 1 mM 2-OG, 0.5 mM MnCl2, 0.5 mM CaCl2).

“Recombinant His-tagged C-terminal ^ECFTO domain (CD-FTO) (domain or fragment)”: the stoichiometry N was found to be 2.
